Measurements as given in doi:10.1101/2021.10.12.463902 (bioRxiv, 2021).
Like-named read-outs stand apart in the source and are kept apart here.

B1: human Eg5 kinesin-5 mini-tetramer with tail (hMBXt), TMR labelled (other, Homo sapiens | Drosophila melanogaster, UniProt P52732 1-374, looked up)
chain: MASQPNSSAKKKEEKGKNIQVVVRVRPFNLAERKASAHSIVESDPVRKEVSVRTGGLADKSSRKTYTFDMVFGASTKQIDVYRSVVAPILDEVIMGYNATIFAYGQTGTGKTFTMEGERSPNEEYTWEEDPLAGIIPRTLHQIFEKLTDNGTEFSVKVSLLEIYNEELFDLLNPSSDVSERLQMFDDPRNKRGVIIKGLEEITVHNKDEVYQILEKGAAKRTTAATLMNAYSSRSHSVFSVTIHMKETTIDGEELVKIGKLNLVDLAGSENIGRSGAVDKRAREAGNINQSLLTLGRVITALVERTPHVPYRESKLTRILQDSLGGRTRTSIIATISPASLNLEETLSTLEYAHRAKCILNKPEVNQKLTKKALAQSLQDQTNLHNKLIGEVMKISDQHSQAFVAKLMEQMQQQQLLMSKEIQTNLQVIEENNQRHKAMLDSMQEKFATIIDSSLQSVEEHAKQMHKKLEQLGAMSLPDAEELQNLQEELANERALAQQEDALLESMMMQMEQIKNLRSKNSISMSVHLNKMEESRLTRNHRIDDIKSGIQDYQKLGIEASQSAQAELTSQMEAGMLLEQDLKLDIPTGTTPQRKSYLYPSTLVRTEPREHLLDQLKRKQPELLMMLNSSENNKEETIPDVDVEEAVLGQYTEEPLSQEPSVDAGVDSSSIGGVPFFQHKKSHGKDKENRGINTLERSKVEETTEHLVTKSRLPLRAQINL
modifications: Tetra-methyl Rhodamine (TMR) on the single reactive cysteine in the neck linker (N358C)

Legend:
[1] = target: Taxol-stabilized microtubules (unlabeled, Alexa 647-labelled and biotinylated tubulin 50:2:1.5) (not stated (Pork or Bovine brains)) (UniProt P02550); assay: single-molecule TIRF motility assay on microtubules
Taxol-stabilized microtubules (unlabeled, Alexa 647-labelled and biotinylated tubulin 50:2:1.5) (not stated (Pork or Bovine brains)), sequence (P02550 whole entry, looked up): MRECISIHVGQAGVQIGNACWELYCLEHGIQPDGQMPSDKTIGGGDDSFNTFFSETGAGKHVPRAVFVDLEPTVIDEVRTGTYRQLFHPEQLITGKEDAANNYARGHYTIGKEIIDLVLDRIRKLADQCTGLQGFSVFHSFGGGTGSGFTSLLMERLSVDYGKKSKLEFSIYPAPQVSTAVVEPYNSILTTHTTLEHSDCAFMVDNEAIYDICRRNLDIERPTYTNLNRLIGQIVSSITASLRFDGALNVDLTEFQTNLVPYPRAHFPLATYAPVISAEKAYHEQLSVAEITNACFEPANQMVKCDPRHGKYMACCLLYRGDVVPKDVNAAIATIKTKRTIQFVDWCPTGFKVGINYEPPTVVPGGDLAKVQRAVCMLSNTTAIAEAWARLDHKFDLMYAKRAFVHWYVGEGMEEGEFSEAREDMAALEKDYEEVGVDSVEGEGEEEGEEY

[2] = target: microtubules of porcine tubulin (GMPCPP or Paclitaxel stabilised, biotin and Alexa-Fluor-633 labelled) (porcine) (UniProt P02550); assay: as above
microtubules of porcine tubulin (GMPCPP or Paclitaxel stabilised, biotin and Alexa-Fluor-633 labelled) (porcine), sequence (P02550 whole entry, looked up, the tested form may be a part): as the sequence (P02550 whole entry, looked up) above

[3] = target: microtubules of porcine tubulin (GMPCPP or Paclitaxel stabilised, biotin and Alexa-Fluor-633 labelled) (porcine) (UniProt P02550); assay: as above; remark: listed apart in the source
[4] = target: Drosophila melanogaster KLP61F BASS-XL (extended Bipolar assembly domain minifilament) (Drosophila melanogaster) (UniProt P46863); assay: crystal structure
[5] = target: the molecule itself; assay: single-molecule TIRF motility assay on microtubules

Molecule	dwell time at MT plus ends, longer lifetime population [1] [s]	dwell time at MT plus ends, shorter lifetime population [1] [s]	other results
human Eg5 kinesin-5 mini-tetramer without tail (hMBX), TMR labelled (from UniProt P52732 1-374; P46863 597-799)	140	14.6	–
human Eg5 kinesin-5 mini-tetramer with tail (hMBXt), TMR labelled (from UniProt P52732 1-374; P46863 597-799; P52732 913-1056)	484	16.4	–
Drosophila KLP61F kinesin-5 mini-tetramer without tail (kMBX), neon green tagged (from UniProt P46863 1-369; P46863 597-833)	–	–	dwell time at MT plus ends [2]: 78 s; dwell time at MT plus ends [3]: 25 s
Drosophila melanogaster KLP61F BASS-XL (extended Bipolar assembly domain minifilament) (from UniProt P46863 620-804) (domain or fragment)	–	–	stoichiometry N [4]: 4
B1	–	–	binding result [5]: binds
